Results published in paper PMC10397807, “Automated simulation-based membrane protein refinement into cryo-EM data” (Biophysical Journal, 2023).

Molecular target: the molecule itself
Test: cryo-EM structure; single-particle reconstruction of maltoporin solubilized in DDM, C3 symmetry imposed, 3.0 Å

B1: maltoporin (natural protein, E. coli (endogenous in C43(DE3)), UniProt P02943 26-446, looked up)
chain: VDFHGYARSGIGWTGSGGEQQCFQTTGAQSKYRLGNECETYAELKLGQEVWKEGDKSFYFDTNVAYSVAQQNDWEATDPAFREANVQGKNLIEWLPGSTIWAGKRFYQRHDVHMIDFYYWDISGPGAGLENIDVGFGKLSLAATRSSEAGGSSSFASNNIYDYTNETANDVFDVRLAQMEINPGGTLELGVDYGRANLRDNYRLVDGASKDGWLFTAEHTQSVLKGFNKFVVQYATDSMTSQGKGLSQGSGVAFDNEKFAYNINNNGHMLRILDHGAISMGDNWDMMYVGMYQDINWDNDNGTKWWTVGIRPMYKWTPIMSTVMEIGYDNVESQRTGDKNNQYKITLAQQWQAGDSIWSRPAIRVFATYAKWDEKWGYDYTGNADNNANFGKAVPADFNGGSFGRGDSDEWTFGAQMEIWW
notes: maltoporin of Escherichia coli, endogenously expressed; native sample purified from E. coli; model fitted from PDB 1MAL and deposited as PDB 8B7V; source: endogenous, E. coli C43(DE3)
binding result: binds
